Data from the supplement of paper PMC9732359.
± gives the uncertainty stated by the source.

Experiment: protein stability index of a GFP-peptide fusion (yeast GPS) (PSI 1-4); higher = more stable; sorted into four equal gates, so the index is relative within each strain
Settings: pdr5∆
Outline: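 For each peptide, the protein stability index sums the read frequency in every gate after multiplying it by the gate number. Read frequencies came from plasmids that were PCR-amplified from each gate and Illumina-sequenced, with reads assigned to strains by barcodes. The gates were four equal bins of GFP/Cherry fluorescence ratio applied to mid-log yeast in leucine-free medium carrying a pooled library of tiled 17-residue yeast protein peptides fused downstream of GFP on a Cherry-expressing plasmid.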

Sequence	protein stability index
ATVPSAPYRKQIISNAH [YAR002W/NUP60]	2.41 ± 0.069

Same assay, conditions: san1∆

Sequence	protein stability index
AGILRGYDIFLNVVLDD [SMX2]	2.51 ± 0.084
AGKADTSIRLEGDELEN [SRB4]	2.91 ± 0.088
AGQLALDLANSGDESNV [YDL116W/NUP84]	2.71 ± 0.26
AGRKFKSRRCDDMLYYI [POP4]	3.21 ± 0.084
AGVVQDIGSDPTLPRSD [RPB9]	2.9 ± 0.061
AHAQHQPSQQPQQAQQQ [GAL11]	3 ± 0.032
AHELQSEDVSRDHEKDT [YIL149C/MLP2]	2.8 ± 0.061
AHIAKNLINLSIGASIA [YCS4]	1.94 ± 0.17
AHTASVGVVFGSGAANE [COR1]	3.07 ± 0.1
AIIVAGVQSNGDQFLRY [PRE4]	2.4 ± 0.13
AIPLLKVLRKFRVQSQS [NUT1]	1.69 ± 0.11
AIQLDYSTANEYIIAAI [RPN3]	2.32 ± 0.094
AIVPGQSISGTLELSAQ [SWP82]	2.98 ± 0.14
AIYNNPTRIRTKSSKEF [RRI2]	1.68 ± 0.1
AKAGLTFPVGRVHRLLR [HTA1]	2.01 ± 0.16
AKAVWENIIIVGGTTSI [ARP9]	1.67 ± 0.081
AKGFYHTPMVNFESISA [SRB8]	1.52 ± 0.11
AKITEIGSTSKRPIESG [YIL149C/MLP2]	3.14 ± 0.11
AKKNNFIEDLAPEQQVQ [UBP6]	2.99 ± 0.08
AKLHRISPKIWCAGAGT [PUP1]	1.85 ± 0.056
AKLNYKNLNPASSSPSS [ECM29]	2.79 ± 0.11
AKRHRKILRDNIQGITK [HHF1]	3.21 ± 0.058
AKRIRVSHHATTFTHCE [RPB2]	2.48 ± 0.09
AKRVENFNSSAPIADDN [DSN1]	2.9 ± 0.1

Sequence	protein stability index
AKSDETKQASSFSFLNR [YLR335W/NUP2]	3.26 ± 0.044
AKTLIPSLNNKISDDEL [RPB4]	3.06 ± 0.06
ALCKNRKCQFRTPDSIS [POP1]	2.28 ± 0.082
ALDGDLIELLEKLDVSR [YCG1]	3.16 ± 0.13
ALDYLIPPPMPKNQQYR [MED7]	2.5 ± 0.096
ALEFLNTTLQDNVSFIE [REC8]	3.05 ± 0.11
ALFQPPNFDWDLCSSVL [ROX3]	2.95 ± 0.089
ALLIEVFTALLRLFINE [ITC1]	1.42 ± 0.097
ALLKLSVKLKQKRLEAG [DIS3]	1.04 ± 0.21
ALNMLPSEILHLILDKL [GRR1]	1.95 ± 0.13
ALPDVVVKGLPDISRAV [RPO31]	2.86 ± 0.072
ALPRGARTATVSKKWAA [RPL14A]	1.96 ± 0.1
ALQKGLKDLMDLCDVVE [RPC19]	2.92 ± 0.13
ALSYAALILADSEIEIS [RPP1A]	1.78 ± 0.06
ALTNELNELKAIKDKLE [YIL149C/MLP2]	1.89 ± 0.096
ALVAYTPTDVIGVVSLT [RRP6]	1.37 ± 0.11
ALYPQEARLRNLTYSSG [RPB2]	2.75 ± 0.085
AMQYVCGDSIICNTLNI [SMC1]	1.5 ± 0.1
ANAAKRAEAKAQGVAVQ [RPL21A]	2.06 ± 0.28
ANEEPNTENVESVPTPA [ITC1]	2.98 ± 0.26
ANETDKRPTPPSFTFGG [YOR098C/NUP1]	2.96 ± 0.037
ANTNSVTSMEAAREKKI [YIL149C/MLP2]	3 ± 0.049
ANVDQISFLEPINLKFL [YMR129W/POM152]	2.92 ± 0.054
ANVIKALAFCEIGITQQ [RRP4]	1.76 ± 0.16

Sequence	protein stability index
ANVLDPSLRKLIESGIG [BRR2]	2.47 ± 0.095
APAFHTSGKVELPKKLL [SRB8]	2.93 ± 0.2
APMDFAIVVGWRAIIKA [FAS1]	2.57 ± 0.082
APPQRPRFNRDNKVSPA [RPS26B]	3.09 ± 0.14
APSLTVPPIASPQQFLR [PRE2]	1.67 ± 0.071
AQTIGRNSKTVREFLEK [PRE6]	3.29 ± 0.07
ARCYRYQKNKPYPKSRY [RPL10]	2.41 ± 0.055
ARDLLTRDEKDPKRLFE [RPS9A]	3.14 ± 0.14
ASELANPYSSYVSQIRK [YAR002W/NUP60]	2.31 ± 0.17
ASGLLRAYLSHSNRCIV [CSN12]	1.7 ± 0.063
ASLTAARTAANSIYCPT [RPN6]	2.84 ± 0.093
ASNGRNKKGRGHVKPVR [RPS26A]	3.45 ± 0.082
ASVYPEYALPKTYNKLH [RPS26A]	2.79 ± 0.059
ATAAESDVAKQLAALGY [RPL16A]	3.18 ± 0.045
ATDLAGPANNPNEFMQF [PRP8]	3.23 ± 0.033
ATDPVAAKPDNLANFSN [SWP82]	3.21 ± 0.051
ATEPQMVLFNIYDDWLD [PRP8]	1.6 ± 0.09
ATFLKLAAPQLVQMYIG [RPT5]	1.2 ± 0.21
ATGISGSVSEETELFEP [ECM29]	3 ± 0.08
ATLPYIKQDIPIVIIFR [RPB2]	1.19 ± 0.12
ATMSVFLQRIDFQIDGN [RRI2]	2.95 ± 0.059
ATQVKTDNTVDKFDFYK [RPT3]	3.26 ± 0.095
ATSQYLKQDLKKISSFK [YGL172W/NUP49]	3.04 ± 0.051
ATVPSAPYRKQIISNAH [YAR002W/NUP60]	1.88 ± 0.093

Same assay, conditions: ubr1∆

Sequence	protein stability index
AGILRGYDIFLNVVLDD [SMX2]	2.75 ± 0.051
AGKADTSIRLEGDELEN [SRB4]	3.25 ± 0.077
AGLDEDGKGAVYSFDPV [PRE7]	2.87 ± 0.15
AGQLALDLANSGDESNV [YDL116W/NUP84]	3 ± 0.12
AGRKFKSRRCDDMLYYI [POP4]	3.04 ± 0.068
AGVVQDIGSDPTLPRSD [RPB9]	2.94 ± 0.047
AHAQHQPSQQPQQAQQQ [GAL11]	2.98 ± 0.031
AHELQSEDVSRDHEKDT [YIL149C/MLP2]	2.68 ± 0.082
AHIAKNLINLSIGASIA [YCS4]	1.78 ± 0.057
AHTASVGVVFGSGAANE [COR1]	3.39 ± 0.12
AIIVAGVQSNGDQFLRY [PRE4]	2.28 ± 0.061
AIPLLKVLRKFRVQSQS [NUT1]	2.5 ± 0.053
AIPNGIHLQRFDEGTTL [RPO21]	2.32 ± 0.062
AIQLDYSTANEYIIAAI [RPN3]	2.47 ± 0.056
AIVPGQSISGTLELSAQ [SWP82]	3.07 ± 0.092
AIYNNPTRIRTKSSKEF [RRI2]	1.55 ± 0.061
AKAGLTFPVGRVHRLLR [HTA1]	2.39 ± 0.12
AKAVWENIIIVGGTTSI [ARP9]	2.48 ± 0.054
AKGFYHTPMVNFESISA [SRB8]	1.93 ± 0.05
AKITEIGSTSKRPIESG [YIL149C/MLP2]	3.31 ± 0.059
AKKKVLDVTKEAQANLL [RPO21]	2.84 ± 0.14
AKKNNFIEDLAPEQQVQ [UBP6]	3.06 ± 0.065
AKLHRISPKIWCAGAGT [PUP1]	1.88 ± 0.042
AKLNYKNLNPASSSPSS [ECM29]	3.04 ± 0.051
AKRHRKILRDNIQGITK [HHF1]	3.07 ± 0.069
AKRIRVSHHATTFTHCE [RPB2]	2.88 ± 0.066

Sequence	protein stability index
AKRVENFNSSAPIADDN [DSN1]	3.43 ± 0.059
AKSDETKQASSFSFLNR [YLR335W/NUP2]	3.31 ± 0.05
AKTLIPSLNNKISDDEL [RPB4]	3.19 ± 0.061
ALCKNRKCQFRTPDSIS [POP1]	1.94 ± 0.036
ALDGDLIELLEKLDVSR [YCG1]	2.73 ± 0.2
ALDYLIPPPMPKNQQYR [MED7]	2.6 ± 0.078
ALEFLNTTLQDNVSFIE [REC8]	2.87 ± 0.072
ALFQPPNFDWDLCSSVL [ROX3]	2.92 ± 0.09
ALLIEVFTALLRLFINE [ITC1]	1.24 ± 0.051
ALLKLSVKLKQKRLEAG [DIS3]	1.15 ± 0.099
ALNMLPSEILHLILDKL [GRR1]	2.03 ± 0.045
ALPDVVVKGLPDISRAV [RPO31]	3.08 ± 0.12
ALPRGARTATVSKKWAA [RPL14A]	2.14 ± 0.056
ALQKGLKDLMDLCDVVE [RPC19]	3.02 ± 0.14
ALSYAALILADSEIEIS [RPP1A]	1.9 ± 0.04
ALTNELNELKAIKDKLE [YIL149C/MLP2]	1.96 ± 0.058
ALVAYTPTDVIGVVSLT [RRP6]	1.93 ± 0.072
ALYPQEARLRNLTYSSG [RPB2]	2.49 ± 0.089
AMQYVCGDSIICNTLNI [SMC1]	1.51 ± 0.071
ANAAKRAEAKAQGVAVQ [RPL21A]	1.92 ± 0.14
ANEEPNTENVESVPTPA [ITC1]	3.18 ± 0.15
ANETDKRPTPPSFTFGG [YOR098C/NUP1]	3.1 ± 0.033
ANTNSVTSMEAAREKKI [YIL149C/MLP2]	3.01 ± 0.047
ANVDQISFLEPINLKFL [YMR129W/POM152]	2.91 ± 0.048
ANVIKALAFCEIGITQQ [RRP4]	2.26 ± 0.075
ANVLDPSLRKLIESGIG [BRR2]	2.56 ± 0.045

Sequence	protein stability index
APAFHTSGKVELPKKLL [SRB8]	2.84 ± 0.12
APMDFAIVVGWRAIIKA [FAS1]	2.14 ± 0.062
APSLTVPPIASPQQFLR [PRE2]	1.65 ± 0.045
AQTIGRNSKTVREFLEK [PRE6]	3.02 ± 0.14
ARCYRYQKNKPYPKSRY [RPL10]	2.77 ± 0.057
ARDLLTRDEKDPKRLFE [RPS9A]	3.62 ± 0.083
ARVSPRNNVANKQPRNE [YAR002W/NUP60]	3.65 ± 0.25
ASELANPYSSYVSQIRK [YAR002W/NUP60]	1.92 ± 0.073
ASFYSVNTEKKTIEVTA [RPN3]	1.65 ± 0.28
ASGLLRAYLSHSNRCIV [CSN12]	1.25 ± 0.027
ASLTAARTAANSIYCPT [RPN6]	2.49 ± 0.045
ASNGRNKKGRGHVKPVR [RPS26A]	3.3 ± 0.056
ASVYPEYALPKTYNKLH [RPS26A]	2.71 ± 0.031
ATAAESDVAKQLAALGY [RPL16A]	3.2 ± 0.048
ATDLAGPANNPNEFMQF [PRP8]	3.4 ± 0.05
ATDPVAAKPDNLANFSN [SWP82]	3.26 ± 0.057
ATEPQMVLFNIYDDWLD [PRP8]	2.18 ± 0.044
ATFLKLAAPQLVQMYIG [RPT5]	1.44 ± 0.23
ATGISGSVSEETELFEP [ECM29]	3.04 ± 0.067
ATLPYIKQDIPIVIIFR [RPB2]	1.14 ± 0.041
ATMSVFLQRIDFQIDGN [RRI2]	3.29 ± 0.058
ATQVKTDNTVDKFDFYK [RPT3]	3.09 ± 0.099
ATSQYLKQDLKKISSFK [YGL172W/NUP49]	3.06 ± 0.042
ATVPSAPYRKQIISNAH [YAR002W/NUP60]	2.37 ± 0.06
